Molecular target: SARS-CoV nucleocapsid protein, recombinant (SARS-CoV, UniProt P59595 1-422)
Experiment: SPR

SARS-CoV nucleocapsid protein, recombinant, sequence (P59595 whole entry): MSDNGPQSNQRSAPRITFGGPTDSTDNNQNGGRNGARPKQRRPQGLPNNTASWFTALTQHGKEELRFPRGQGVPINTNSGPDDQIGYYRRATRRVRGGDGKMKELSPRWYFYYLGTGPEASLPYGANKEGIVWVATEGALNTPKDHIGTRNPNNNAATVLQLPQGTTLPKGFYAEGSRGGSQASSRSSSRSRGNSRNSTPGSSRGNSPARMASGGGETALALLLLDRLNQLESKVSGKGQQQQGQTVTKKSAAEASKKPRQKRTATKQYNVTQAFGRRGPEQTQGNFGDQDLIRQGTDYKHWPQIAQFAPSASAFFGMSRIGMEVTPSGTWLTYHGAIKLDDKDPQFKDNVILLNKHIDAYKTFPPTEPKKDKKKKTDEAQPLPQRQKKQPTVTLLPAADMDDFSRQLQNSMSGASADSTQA

B1: P301-F7 (antibody, V domains shown)
VH: QLQLQESGPGLVKPSETLSLTCTVSGGSISSTSYYWGWIRQPPGKGLEWIGSIYYSGSTYYNPSLKSRVTISVDTSKNQFSLKLSSVTAADTAVYYCARFSLYCSSTSCYENWFDPWGQGTLVTVSS
VL: QSVLTQPPSVSAAPGQKVTISCSGSSSNIGNNYVSWYQQLPGTAPKLLIYDNNKRPSGIPDRFSGSKSGTSATLGITGLQTGDEADYYCGTWDSSLSAGQVVFGGGTKLTVL
Kd: 33.4 nM

Source: PMC9142731 (2022)
